From publication PMC5308003

Biological target: T1, 6His-OxyR-Like (Magnetospirillum gryphiswaldense MSR-1) (UniProt V6F1S1)
T1 sequence: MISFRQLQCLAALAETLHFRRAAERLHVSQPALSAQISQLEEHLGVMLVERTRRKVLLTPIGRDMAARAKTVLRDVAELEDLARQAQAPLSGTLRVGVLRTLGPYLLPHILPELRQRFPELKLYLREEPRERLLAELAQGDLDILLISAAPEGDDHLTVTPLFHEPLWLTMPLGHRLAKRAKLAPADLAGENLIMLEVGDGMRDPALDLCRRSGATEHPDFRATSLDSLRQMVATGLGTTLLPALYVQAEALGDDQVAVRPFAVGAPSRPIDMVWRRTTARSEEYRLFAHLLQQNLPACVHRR
Experiment: EMSA
Conditions: EMSA: DIG Gel Shift Kit 2nd Gen (Roche) binding buffer with 1 uL poly[d(I-C)], 20 uL, 25 C 30 min, 5% native PAGE in 0.5x TBE; footprinting: 1000 ng labeled …

Sequence	binding
CAGGGCAGGATGATGTGAGTGCGTAGACAGATAGGTAAACCAACCTTCCCTTTTAGGCAAGGCGTTTCGCCGTCAAAAATGCTTATATTGCAATGCAATAATGGCAATTAACTGGATAATAGTTATTTATCAAAACCTAACCAGATGGGCGGGCAACGGGTGGTGCGATGCAGCAATCCTTTTGCCTCATCGGGTTAGCGCCTGACAGGGATATTGGGAGCGGGCAAACACTTGAAAACCCACCCGGCGGACAAAATCGCGCCAACCGGTCCATTTCACAATGCACCCATTCAGAGCAAA (double strand) [pdh promoter EMSA probe]	binds
CGGCACTTGTTCCATGAACTTCGACCATATCGCTCTCCCATTCAACCAATTGTTAGCCTTGGGCTTGGCGATATTCTAACCGTTCCTCCATTCAACTCATACAGATGTGGTTTAGAAGCTTTTTAATAAATACTTGAGGGTCCGGAAATCATTAGCCGAACCCTCAATAGCCTCAGCTATGCAGGCCGGGGGCTTCATGTCCGGTGCGGGCCACGTATTCGGTGTAGCCGC (double strand) [katG promoter EMSA probe]	no binding
CTTGATCCCGATAATCTGCTGATCGTGGTGGTCGGCAAGCCGGAAGGGGTCAACGGCACGCCCTAACCCGAAAAGACGGCGGCGGCAAAAATCAACGCCGCCCAGTGATCCGTTTCTCCCGTGACACCGTAGAAGGGTCATAAGGAGAAACGCGATGCCTCGGATCATCAAGATTGTTGCCGGCGCTTTGGCCACCTGTCTGGCGGCGACGGCCCCGGCCAAGGCCAGTGGTGCTGTCTTGGACT (double strand) [bsaA promoter EMSA probe]	no binding
GGGCGAAGAATGGACATCGTCGTCTCCATTAGGCTGTTGTCCGTGATTGAGACTATGCCCCCTTCTTTGTGATAATTCTAATCGATATATCTTGAGATATTGATAGTAAATTGTTATCAGTGATCCATGATCAGCTTTCGCCAATTACAATGCCT (double strand) [oxyR-Like promoter EMSA probe]	binds
TGGGCTGTTGCTTGTCTTATCTTTTTTCATTTCCGCCTCACAGGCTGAATTATCTGAAAAGGAAATAGATGAGGATCAGGACTGGGATGGGAACGCCAACCAGCCAGAGAAGGCCGTATTTCATTTCCTACCTCGCTGTTCTGCCGGTGTGTCATGGGGCAATGGAGCCGTCCTGATACAAGA (double strand) [katE promoter EMSA probe]	no binding
